Experimental data reported in publication PMC314469, “Protein Interaction Networks by Proteome Peptide Scanning” (PLoS Biology, 2004).

T1: Yfr024 SH3 (LSB3_YEAST), P43603
T1 chain: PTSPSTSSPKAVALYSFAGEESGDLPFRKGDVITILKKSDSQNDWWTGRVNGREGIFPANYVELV

T2: Rvs167 SH3 (RV167_YEAST), P39743
T2 chain: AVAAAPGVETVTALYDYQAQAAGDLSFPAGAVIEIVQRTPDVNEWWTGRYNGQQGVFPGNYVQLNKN

T3: Boi1 SH3 (BOI1_YEAST), P38041
T3 chain: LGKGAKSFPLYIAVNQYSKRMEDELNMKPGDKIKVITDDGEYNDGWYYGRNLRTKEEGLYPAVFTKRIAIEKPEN

T4: Boi2 SH3 (BOI2_YEAST), P39969
T4 chain: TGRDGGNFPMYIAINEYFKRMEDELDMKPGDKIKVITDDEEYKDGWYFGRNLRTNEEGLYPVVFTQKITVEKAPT

T5: Yhr016c SH3 (YSC84_YEAST), P32793
T5 chain: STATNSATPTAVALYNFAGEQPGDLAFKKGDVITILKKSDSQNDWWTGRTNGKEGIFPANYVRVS

B1: YPR045C 291-304 (peptide)
chain: FENPTIPKKSYSEF
B2: YMR035W 79-92 (peptide)
chain: FKAPTNPRKVYSKR
B3: YPL269W 491-504 (peptide)
chain: FFDPESPNKGKLIL
B4: YER066C-A 112-125 (peptide)
chain: FFHPAIPLKNAAPF
B5: YOR070C 179-192 (peptide)
chain: FGTPVAPTRTLSRK
B6: YIL105C 444-457 (peptide)
chain: FLLPNLPMRTFKEI
B7: YLR399C 173-186 (peptide)
chain: FLQPVDPVKLDIPF
B8: YHL028W 526-539 (peptide)
chain: FHDPILPRRTSTFL
B9: YOR243C 86-99 (peptide)
chain: FKMPKKPQRSKEEV
B10: YBR098W 196-209 (peptide)
chain: FDFPLSPVKHENPT
B11: YGL177W 74-87 (peptide)
chain: FSHPLSPLKSNFID
B12: YGR068C 471-484 (peptide)
chain: FISPHLPMKGRLVL
B13: YBR108W 587-600 (peptide)
chain: FLPPPKPFRHTETK
B14: YLR128W 194-207 (peptide)
chain: FFQPEYPVRMEPDL
B15: YBR044C 356-369 (peptide)
chain: EYSPLVPSKMSADK

Biological target: T1, Yfr024 SH3 (LSB3_YEAST), P43603
Assay: SPOT array

| normalised SPOT signal, Boehringer light units (BLU); mean over the file's lines of this peptide | Binder |
| --- | --- |
| 50.5 | B1 |
| 267 | B2 |
| 68 | B3 |
| 298 | B4 |
| 5160 | B5 |
| 15300 | B6 |
| 0 | B7 |
| 44800 | B8 |
| 7880 | B9 |
| 53 | B10 |
| 217 | B11 |
| 1540 | B12 |
| 36400 | B13 |
| 1060 | B14 |
| 370 | B15 |

Biological target: T2, Rvs167 SH3 (RV167_YEAST), P39743
Assay: SPOT array

| normalised SPOT signal, Boehringer light units (BLU); mean over the file's lines of this peptide | Binder |
| --- | --- |
| 47.2 | B1 |
| 33.7 | B2 |
| 61.6 | B3 |
| 22.5 | B4 |
| 398 | B5 |
| 8120 | B6 |
| 56.8 | B7 |
| 6840 | B8 |
| 166 | B9 |
| 28.7 | B10 |
| 91.8 | B11 |
| 68.3 | B12 |
| 1190 | B13 |
| 0 | B14 |
| 202 | B15 |

Biological target: T3, Boi1 SH3 (BOI1_YEAST), P38041
Assay: SPOT array

| normalised SPOT signal, Boehringer light units (BLU); mean over the file's lines of this peptide | Binder |
| --- | --- |
| 78.2 | B1 |
| 80.9 | B2 |
| 63.1 | B3 |
| 154 | B4 |
| 3280 | B5 |
| 218 | B6 |
| 92.6 | B7 |
| 9870 | B8 |
| 97.7 | B9 |
| 70.3 | B10 |
| 61.5 | B11 |
| 231 | B12 |
| 295 | B13 |
| 57.9 | B14 |
| 103 | B15 |

Biological target: T4, Boi2 SH3 (BOI2_YEAST), P39969
Assay: SPOT array

| normalised SPOT signal, Boehringer light units (BLU); mean over the file's lines of this peptide | Binder |
| --- | --- |
| 55.1 | B1 |
| 38.8 | B2 |
| 149 | B3 |
| 9.4 | B4 |
| 308 | B5 |
| 66.4 | B6 |
| 24.4 | B7 |
| 87.1 | B8 |
| 244 | B9 |
| 2.4 | B10 |
| 44.1 | B11 |
| 20.4 | B12 |
| 67.3 | B13 |
| 76 | B14 |
| 56.6 | B15 |

Biological target: T5, Yhr016c SH3 (YSC84_YEAST), P32793
Assay: SPOT array

| normalised SPOT signal, Boehringer light units (BLU); mean over the file's lines of this peptide | Binder |
| --- | --- |
| 43.7 | B1 |
| 143 | B2 |
| 129 | B3 |
| 288 | B4 |
| 269 | B5 |
| 8100 | B6 |
| 117 | B7 |
| 42100 | B8 |
| 2660 | B9 |
| 135 | B10 |
| 0 | B11 |
| 301 | B12 |
| 25000 | B13 |
| 210 | B14 |
| 177 | B15 |
